Measurements from paper PMC4112642, “Tomato PYR/PYL/RCAR abscisic acid receptors show high expression in root, differential sensitivity to the abscisic acid agonist quinabactin, and the capability to enhance plant drought resistance” (Journal of Experimental Botany, 2014).

What was measured:
[1] = biological target: 6g061180 tomato ABA receptor, recombinant, purified for size exclusion chromatography (tomato (Solanum lycopersicum)); experiment: SEC; Superdex200 10/30 in 25mM TRIS-HCl pH 8.0, 200mM NaCl, 5mM beta-mercaptoethanol, in the absence of ABA; about 1mg loaded of 8g076960, 6g061180 or 6g050500 (concentrated to 10mg ml^-1), 0.1mg of 12g055990 (0.7mg ml^-1)
[2] = biological target: 8g076960 tomato ABA receptor, recombinant, purified for size exclusion chromatography (tomato (Solanum lycopersicum)); experiment: as above
[3] = biological target: T1, 6g061180 (Sl06g061180) with ΔN 12g096020 (Solanum lycopersicum, UniProt A0A3Q7HQZ7); experiment: receptor-mediated PP2C inhibition, RRA(phosphoT)VA phosphopeptide, molybdate dye; type: biochemical; conditions: agonist; 0.5 μM PP2C, 2 μM receptor, 0.1-10 μM ligand; 10 mM MgCl2, pH 7.5, 30 °C
T1 construct: gene LOC101267127; PP2C N-terminally deleted catalytic core 178-509; with Protein phosphatase 2C HAB1-like (clade A)

[4] = biological target: T2, 8g076960 (Sl08g076960) with ΔN 12g096020 (Solanum lycopersicum, UniProt A0A3Q7HTY9); experiment: as above; type: biochemical; conditions: agonist; 0.5 μM PP2C, 2 μM receptor, 0.1-10 μM ligand; 10 mM MgCl2, pH 7.5, 30 °C
T2 construct: gene LOC101268417; PP2C N-terminally deleted catalytic core 178-509; with Protein phosphatase 2C HAB1-like (clade A)

[5] = biological target: the molecule itself; experiment: SEC; Superdex200 10/30 in 25mM TRIS-HCl pH 8.0, 200mM NaCl, 5mM beta-mercaptoethanol, in the absence of ABA; about 1mg loaded of 8g076960, 6g061180 or 6g050500 (concentrated to 10mg ml^-1), 0.1mg of 12g055990 (0.7mg ml^-1)

T2 sequence (A0A3Q7HTY9 entry or part of it, stated change not applied): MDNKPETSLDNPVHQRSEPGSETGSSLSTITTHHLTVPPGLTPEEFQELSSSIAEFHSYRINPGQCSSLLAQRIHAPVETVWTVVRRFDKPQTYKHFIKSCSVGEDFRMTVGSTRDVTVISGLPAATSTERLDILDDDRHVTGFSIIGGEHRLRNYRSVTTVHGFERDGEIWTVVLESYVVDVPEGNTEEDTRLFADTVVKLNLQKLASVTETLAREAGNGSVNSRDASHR
T1 sequence (A0A3Q7HQZ7 entry or part of it, stated change not applied): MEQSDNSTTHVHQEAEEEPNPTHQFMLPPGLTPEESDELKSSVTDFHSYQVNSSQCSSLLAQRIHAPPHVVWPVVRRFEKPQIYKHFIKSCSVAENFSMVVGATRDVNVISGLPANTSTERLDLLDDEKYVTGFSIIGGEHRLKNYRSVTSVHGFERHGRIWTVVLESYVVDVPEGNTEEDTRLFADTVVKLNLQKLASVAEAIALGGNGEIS

“6g061180 tomato ABA receptor, recombinant, purified for size exclusion chromatography” was tested, and the stoichiometry N [1] was 2.

“8g076960 tomato ABA receptor, recombinant, purified for size exclusion chromatography” was tested, and the stoichiometry N [2] was 2.

`CCCN1C(=O)CCc2cc(NS(=O)(=O)Cc3ccc(C)cc3)ccc21` [quinabactin] was tested, and the “% PP2C activity” value [3] was “efficiently through the dimeric tomato receptors 8g076960 and 6g061180” and the “% PP2C activity” value [4] was “QB inhibited (compared with ABA) ΔN12g096020 phosphatase activity efficiently through the dimeric tomato receptors 8g076960”.

B1: 6g050500 tomato ABA receptor, recombinant, purified for size exclusion chromatography (receptor)
chain: MPSSLQLHRINPTTATLAVKQPQLSQATTWFSPVSTSVPDNVLHHHTHVVGPNQCCSAVLQSISAPIDTVWSLVRRFDNPQAYKHFLKSCHVIVGDGDVGTLREVRVVSGLPAGSSTERLEILDDEKHVLSFSVVGGDHRLNNYRSVTTLHRAAEEGSTVVVESYVVDVPQGNTKEETCVFVDTIVRCNLQSLAQIAQNLAKTSKNHDEDPQLKIHRLVDFV
In the case of B1, the “stoichiometry N” value [5] is reported as 2.
